Results taken from patent US20250163162A1 (SYNTHEKINE, published 2025).

T1: IL10Rα/IL2Rγ receptor (human, UniProt Q13651 22-578; P31785 23-369)
T1 sequence (looked up) 1: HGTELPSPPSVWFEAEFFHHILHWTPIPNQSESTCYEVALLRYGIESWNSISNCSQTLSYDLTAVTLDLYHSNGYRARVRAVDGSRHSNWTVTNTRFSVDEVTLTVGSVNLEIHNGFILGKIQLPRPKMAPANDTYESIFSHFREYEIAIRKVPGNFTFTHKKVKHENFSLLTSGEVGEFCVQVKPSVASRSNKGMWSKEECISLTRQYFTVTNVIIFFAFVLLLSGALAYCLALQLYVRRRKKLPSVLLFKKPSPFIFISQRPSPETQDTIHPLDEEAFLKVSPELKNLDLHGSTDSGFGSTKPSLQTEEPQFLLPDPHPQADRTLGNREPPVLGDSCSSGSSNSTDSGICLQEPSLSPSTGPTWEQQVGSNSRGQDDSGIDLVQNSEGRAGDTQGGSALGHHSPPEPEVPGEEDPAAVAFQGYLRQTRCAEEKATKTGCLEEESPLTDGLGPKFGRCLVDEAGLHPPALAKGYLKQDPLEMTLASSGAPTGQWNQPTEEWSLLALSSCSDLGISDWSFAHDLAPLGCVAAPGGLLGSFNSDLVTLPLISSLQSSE
T1 sequence (looked up) 2: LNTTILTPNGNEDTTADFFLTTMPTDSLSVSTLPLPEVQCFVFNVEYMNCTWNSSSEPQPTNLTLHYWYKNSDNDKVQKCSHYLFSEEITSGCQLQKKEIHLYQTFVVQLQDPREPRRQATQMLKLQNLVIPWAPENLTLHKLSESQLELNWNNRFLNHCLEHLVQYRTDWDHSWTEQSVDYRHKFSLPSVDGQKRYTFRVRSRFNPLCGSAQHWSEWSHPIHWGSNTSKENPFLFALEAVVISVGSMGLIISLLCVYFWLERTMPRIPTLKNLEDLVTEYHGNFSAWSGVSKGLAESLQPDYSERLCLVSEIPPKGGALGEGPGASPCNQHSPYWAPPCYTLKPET


Target: T1, IL10Rα/IL2Rγ receptor
Assay: cell-based or functional assay

Binder | pSTAT3 MFI, B cells, 100 nM (unstimulated 1045) | pSTAT3 MFI, CD4+ T cells, 100 nM (unstimulated 1778) | pSTAT3 MFI, CD8+ T cells, 100 nM (unstimulated 1288) | pSTAT3 MFI, Monocytes, 100 nM (unstimulated 1787) | pSTAT3 MFI, NK cells, 100 nM (unstimulated 1149)
DR466(DR240-DR232) (bispecific antibody) QVQLQESGGGSVQAGGSLRLSCGASGYTYSSYCMGWFRQVPGKEREGVAVIDSDGSTSYADSVKGRFTISKDNGKNTLYLQMNSLKPEDTAMYYCAADLGHYRPPCGVLYLGMDYWGKGTQVTVSSGGGSQVQLQESGGGSVQAGGSLRLSCVASGYTSCMGWFRQAPGKEREAVATIYTRGRSIYYADSVKGRFTISQDNAKNTLYLQMNSLKPEDIAMYSCAAGGYSWSAGCEFNYWGQGTQVTVSSASHHHHHH | 1100 MFI | 3170 MFI | 2310 MFI | 1870 MFI | 1280 MFI
DR468(DR240-DR234) (bispecific antibody) QVQLQESGGGSVQAGGSLRLSCGASGYTYSSYCMGWFRQVPGKEREGVAVIDSDGSTSYADSVKGRFTISKDNGKNTLYLQMNSLKPEDTAMYYCAADLGHYRPPCGVLYLGMDYWGKGTQVTVSSGGGSQVQLQESGGGSVQAGGSLRLSCVASGYTFSSYCMGWFRQAPGKEREGVAALGGGSTYYADSVKGRFTISQDNAKNTLYLQMNSLKPEDTAMYYCAAAWVACLEFGGSWYDLARYKHWGQGTQVTVSSASHHHHHH | 1080 MFI | 3520 MFI | 2260 MFI | 1860 MFI | 1290 MFI
DR442(DR236-DR232) (bispecific antibody) QVQLQESGGGSVQAGGSLRLSCAASRFTYSSYCMGWFRQAPGKEREGVASIDSDGSTSYTDSVKGRFTISKDNAKNTLYLQMNSLKPEDTAMYYCALDLMSTVVPGFCGFLLSAGMDYWGKGTQVTVSSGGGSQVQLQESGGGSVQAGGSLRLSCVASGYTSCMGWFRQAPGKEREAVATIYTRGRSIYYADSVKGRFTISQDNAKNTLYLQMNSLKPEDIAMYSCAAGGYSWSAGCEFNYWGQGTQVTVSSASHHHHHH | 1050 MFI | 3110 MFI | 2100 MFI | 1790 MFI | 1220 MFI
DR474(DR241-DR234) (bispecific antibody) QVQLQESGGGSVQAGGSLRLSCAASGYSNCSYDMTWYRQAPGKEREFVSAIHSDGSTRYADSVKGRFFISQDNAKNTVYLQMNSLKPEDTAMYYCKTDPLHCRAHGGSWYSVRANYWGQGTQVTVSSGGGSQVQLQESGGGSVQAGGSLRLSCVASGYTFSSYCMGWFRQAPGKEREGVAALGGGSTYYADSVKGRFTISQDNAKNTLYLQMNSLKPEDTAMYYCAAAWVACLEFGGSWYDLARYKHWGQGTQVTVSSASHHHHHH | 1030 MFI | 3770 MFI | 2460 MFI | 2320 MFI | 1230 MFI
